Paper PMC2962499

Assays:
[1] = target: Schizosaccharomyces pombe Rpn10, full-length (residues 1-243) (Schizosaccharomyces pombe) (UniProt O94444); assay: ITC
[2] = target: Schizosaccharomyces pombe Rpn10, full-length (residues 1-243) (Schizosaccharomyces pombe) (UniProt O94444); assay: AUC
[3] = target: Schizosaccharomyces pombe Rpn10, full-length (residues 1-243) (Schizosaccharomyces pombe) (UniProt O94444); assay: SPR

Schizosaccharomyces pombe Rpn10, full-length (residues 1-243) (Schizosaccharomyces pombe), sequence (O94444 whole entry, the tested form may be a part): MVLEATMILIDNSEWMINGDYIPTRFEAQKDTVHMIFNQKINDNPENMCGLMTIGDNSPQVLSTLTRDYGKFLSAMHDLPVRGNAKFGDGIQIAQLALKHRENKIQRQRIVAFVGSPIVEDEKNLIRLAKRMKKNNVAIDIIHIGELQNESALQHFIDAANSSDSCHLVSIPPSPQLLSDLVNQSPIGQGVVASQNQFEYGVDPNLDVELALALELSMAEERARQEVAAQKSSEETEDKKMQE

Kd [1] [µM] | stoichiometry N [1] | stoichiometry N [2] | Kd [3] [µM] | KD of each of the two equivalent sites [1] [µM] | Substance
13.9 | 1 | 1 | 35 |  | Lys48-linked diubiquitin (from UniProt P0CG47 1-76; P0CG47 1-76)
 |  | 1 |  | 134 | Lys63-linked diubiquitin (from UniProt P0CG47 1-76; P0CG47 1-76)
